Some targets named below: TLS (UniProt P35637 1-526); GST-TLS 373-526 (UniProt P35637 373-526); GST-TLS 211-526 (UniProt P35637 211-526).
Assay in all cases: EMSA

The record followed here is publication PMC2823488.

TLS, sequence (P35637 whole entry): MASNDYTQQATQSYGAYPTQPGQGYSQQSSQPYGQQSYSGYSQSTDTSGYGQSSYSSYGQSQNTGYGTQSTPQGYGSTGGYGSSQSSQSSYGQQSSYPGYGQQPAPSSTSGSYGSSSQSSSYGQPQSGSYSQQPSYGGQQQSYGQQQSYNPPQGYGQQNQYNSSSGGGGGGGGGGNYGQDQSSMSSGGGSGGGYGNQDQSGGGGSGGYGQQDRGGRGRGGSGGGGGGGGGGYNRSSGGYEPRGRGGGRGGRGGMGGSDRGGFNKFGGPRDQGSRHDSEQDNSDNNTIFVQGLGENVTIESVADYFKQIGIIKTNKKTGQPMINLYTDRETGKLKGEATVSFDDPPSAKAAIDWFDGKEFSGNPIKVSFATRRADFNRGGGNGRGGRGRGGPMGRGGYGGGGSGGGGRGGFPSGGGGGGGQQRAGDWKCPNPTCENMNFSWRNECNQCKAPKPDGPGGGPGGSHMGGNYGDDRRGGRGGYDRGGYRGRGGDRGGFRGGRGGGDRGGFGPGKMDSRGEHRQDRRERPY
GST-TLS 211-526, sequence (P35637 211-526): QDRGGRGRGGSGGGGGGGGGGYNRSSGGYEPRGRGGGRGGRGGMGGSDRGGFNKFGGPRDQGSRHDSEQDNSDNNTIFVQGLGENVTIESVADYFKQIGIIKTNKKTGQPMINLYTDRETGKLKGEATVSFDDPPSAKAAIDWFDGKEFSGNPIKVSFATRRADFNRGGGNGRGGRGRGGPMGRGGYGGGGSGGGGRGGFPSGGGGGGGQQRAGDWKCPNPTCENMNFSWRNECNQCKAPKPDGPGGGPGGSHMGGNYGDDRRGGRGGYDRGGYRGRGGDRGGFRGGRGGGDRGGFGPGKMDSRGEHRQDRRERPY
GST-TLS 373-526, sequence (P35637 373-526): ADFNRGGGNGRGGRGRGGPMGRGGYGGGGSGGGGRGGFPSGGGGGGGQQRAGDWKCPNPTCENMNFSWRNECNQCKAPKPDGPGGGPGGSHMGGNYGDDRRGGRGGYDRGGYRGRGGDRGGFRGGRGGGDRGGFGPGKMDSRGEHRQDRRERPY

For CCCGGGAUUUAGGGGGUGAGGUGGA (ssRNA) [-341a], the binding result with TLS is “binds”.
On to UGGCAUCGUGAUGGACUCCGGUGAC (ssRNA) [β-actin RNA], for which the binding result with TLS is “no binding”.
On the same count and under the same terms, to GACACCCCATATCCAAGCCGGCAGA (ssDNA) [DNA (complement of -454s)] belongs “no binding”; to UCCAGCAGCAGCCCAAGAUGGUGGC (ssRNA) [-764a], “no binding”.

B1: RNA:DNA hybrid of -454s (DNA:RNA)
RNA: UCUGCCGGCUUGGAUAUGGGGUGUC
DNA: GACACCCCATATCCAAGCCGGCAGA
As to B1, the binding result with TLS was “no binding”.
Regarding UUGUAUUUUGAGCUAGUUUGGUGAC (ssRNA) [GGUG-oligonucleotide], the binding result with GST-TLS 373-526, in the data set with TLS and in the data set with GST-TLS 211-526 was “binds” in each case.
For UCUGCCGGCUUGGAUAUGGGGUGUC (ssRNA) [-454s (RNA in Fig. 4g)], the binding result in the data set with TLS is reported as “binds”.
